These results are taken from article PMC4755954, “Impact of clinically tested NEP/ACE inhibitors on tumor uptake of [^111In-DOTA]MG11—first estimates for clinical translation” (EJNMMI Research, 2016).

The structures appear in SMILES notation. Square brackets hold non-standard residues; d marks the D form. Peptide text beside a SMILES is read from it. * marks the point of attachment. DOTA = O=C(O)CN1CCN(CC(=O)O)CCN(CC(=O)*)CCN(CC(=O)O)CC1

Series [1] in a line: in vivo. On the set-up: species or system SCID mice. The following applies: male, SCID, mouse, iv, 10 pmol total peptide, total radioactivity, %ID/g tissue ± SD. How it is done:
In-house male SCID mice (NCSR “Demokritos” Animal House) of 6 weeks of age at the time of arrival (18 ± 2 g body weight) were inoculated subcutaneously (sc) in their flanks with a suspension of freshly harvested AR42J cells (1 × 10^7 cells in ~150 μL saline). Animals were kept in aseptic conditions for 14 days when well-palpable tumors developed at the inoculation sites (0.31 ± 0.17 g). At the day of biodistribution, animals received a bolus of [^111In-DOTA]MG11 (100 μL, 37–74 kBq, 10 pmol total peptide, in saline/EtOH 9/1 v/v) through the tail vein, coinjected with (a) vehicle (100 μL; control group, n = 10), (b) PA (100 μL of vehicle containing 300 μg PA; PA group, n = 10), (c) TO (100 μL of vehicle containing 150 μg TO; TO group, n = 4), (d) Lis (100 μL of vehicle containing 100 μg Lis; Lis group, n = 4), (e) PA plus Lis (100 μL vehicle containing 300 μg PA and 100 μg Lis; PA+Lis group, n = 5), or (f) 30–40 min after ip injection of Race (3 mg Race dissolved in 0.025 mL DMSO and freshly mixed with 0.375 mL saline; Race group, n = 4). In a separate animal group, the mice were coinjected with 100 μL vehicle containing both 300 μg PA and 100 μg DG2 [25] to assess non-specific tumor uptake during in situ NEP inhibition (in vivo CCK2R blockade; block group, n = 4).
(§1) Mice had access to drinking water ad libitum until they were euthanized at 4 h pi. Blood samples, organs of interest, and tumors were collected immediately after dissection, weighted, and measured for radioactivity in the gamma counter; only stomachs were emptied of their contents prior to measurements. Biodistribution data were calculated as percent of injected dose per gram tissue (% ID/g) with the aid of suitable standards of the injected dose, using the GraphPad Prism Software (San Diego, CA).

Series [2] in a line: in vivo. On the set-up: species or system SCID mice. The following applies: male, SCID, mouse, iv, 10 pmol total peptide, total radioactivity, %ID/g tissue ± SD. How it is done: as §1
Inocula of freshly harvested A431-CCK2R(+/−) cells (1.6 × 10^7/1.4 × 10^7 cell suspensions in 150 μL saline) were sc-injected in the right and left flanks of the SCID mice (male SCID mice, 6 weeks of age and of 18 ± 2 g body weight on arrival day; NCSR “Demokritos” Animal House). The animals were kept in aseptic conditions for 8 days till well-palpable tumors (0.26 ± 0.08 g) developed at the inoculation sites. At the day of the experiment, the mice received a bolus of [^111In-DOTA]MG11 (100 μL, 37–74 kBq, 10 pmol total peptide, in saline/EtOH 9/1 v/v) through the tail vein, coinjected with (a) vehicle (100 μL; control group, n = 5), (b) three different doses of PA (3 μg, n = 5; 30 μg, n = 4; or 300 μg PA, n = 10, dissolved in 100 μL vehicle), and (c) three different doses of TO (1.5, 15, or 150 μg TO dissolved in 100 μL vehicle, all groups of n = 4). Mice had free access to drinking water until they were sacrificed at 4 h pi, and biodistribution was conducted as described above.
This is another data set of the same source.

For series [3] the following is noted: iv infusion of 150 mg in 250 mL of isotonic glucose in 42 patients; cited from earlier work. An excerpt: Aiming at clinical translation, our interest has been attracted by two clinically certified NEP inhibitors, TO and its prodrug Race. TO is a potent, reversible NEP inhibitor with a relative rapid onset of action, but its water solubility is not ideal for iv injection as a bolus together with the radiopeptide. […] The impact of TO on the bioavailability and tumor uptake of our paradigm compound [^111In-DOTA] ...

Consider `CSCC[C@H](NC(=O)[C@H](Cc1c[nH]c2ccccc12)NC(=O)CNC(=O)[C@H](Cc1ccc(O)cc1)NC(=O)[C@H](C)NC(=O)[C@@H](CCC(=O)O)NC(=O)CN1CCN(CC(=O)O)CCN(CC(=O)O)CCN(CC(=O)O)CC1)C(=O)N[C@@H](CC(=O)O)C(=O)N[C@@H](Cc1ccccc1)C(N)=O` [[^111In-DOTA]MG11, metal not drawn] ({DOTA}-[dE]AYGWMDF-NH2), for which the tissue uptake at 4 h in “in vivo [1]” (Blood) is 0.04 ± 0.01 %ID/g; in the series “in vivo [1]” (Femur), 0.09 ± 0.05 %ID/g; in “in vivo [1]” (Heart), 0.05 ± 0.02 %ID/g; in the series “in vivo [1]” (Intestines), 0.89 ± 0.76 %ID/g; in “in vivo [1]” (Kidneys) it was 1.86 ± 0.25 %ID/g; in “in vivo [1]” (Liver) it was 0.13 ± 0.03 %ID/g. Besides, the tissue uptake at 4 h worked out at 0.07 ± 0.02 %ID/g in “in vivo [1]” (Lung); 0.04 ± 0.01 %ID/g in the series “in vivo [1]” (Muscle); 0.11 ± 0.03 %ID/g in “in vivo [1]” (Pancreas); 0.17 ± 0.07 %ID/g in “in vivo [1]” (Spleen); 1.53 ± 0.65 %ID/g in “in vivo [1]” (Stomach); 1.82 ± 1.25 %ID/g in “in vivo [1]” (Tumor (AR42J)). Further, the tissue uptake at 4 h was determined as 0.01 ± 0.01 %ID/g in “in vivo [2]” (Blood); 0.02 ± 0.01 %ID/g in “in vivo [2]” (Femur); 0.02 ± 0.01 %ID/g in “in vivo [2]” (Heart); 0.83 ± 0.53 %ID/g in “in vivo [2]” (Intestines); 1.3 ± 0.29 %ID/g in “in vivo [2]” (Kidneys); 0.11 ± 0.02 %ID/g in “in vivo [2]” (Liver). Moreover, the tissue uptake at 4 h amounted to 0.03 ± 0.01 %ID/g in “in vivo [2]” (Lung); 0.02 ± 0.01 %ID/g in the series “in vivo [2]” (Muscle); 0.05 ± 0.02 %ID/g in the series “in vivo [2]” (Pancreas); 0.06 ± 0.01 %ID/g in the series “in vivo [2]” (Spleen); 1.32 ± 0.26 %ID/g in the series “in vivo [2]” (Stomach); 2.5 ± 0.92 %ID/g in “in vivo [2]” (Tumor (+) (A431-CCK2R(+))). For the same compound, the tissue uptake at 4 h in “in vivo [2]” (Tumor (−) (A431-CCK2R(−))) stood at 0.12 ± 0.02 %ID/g.
`O=C(O)CNC(=O)C(CS)Cc1ccccc1` (racemic) [TO, DL-3-mercapto-2-benzylpropanoylglycine]: the “hemodynamic tolerance in human” value in series [3] is on record as “excellent hemodynamic tolerance”.

The tissue uptake is the percentage of the injected dose found per gram of tissue.
